Assay results taken from article PMC4215112.

B1: Bet v 1.0101 peptide I56 to D69 [modified: biotin at the N-terminus, before the additional glycine; biotin at the N-terminus, before the additional glycine] [birch] / M0418 scFv-Fcε fusion protein [human] (parent)
chain 1: QVQLVQSGAEVKKPGESLKISCKGSEYSFPNYWIAWVRQMPGKGLEWMGMIYPGDSDTRYSPSFQGQVNISADKSSRTAFLEWSSLKASDSATYFCARLGGQLWNSYYYYYYMDVWGKGTTVTVSSGGGGSGGGGSGGGGSSYELTQPPSASGTPGQRVTISCSGSSSNIGGNTVNWYQQVPGTAPRLLIYKNNQRPSGVPDRFSGSKSGTSASLAISGLRSEDEADYYCEAWDGGLRGGVFGGGTKLTVLGDYKDDDDKAAA
chain 2: GISFPEGFPFKYVKDG

Variants of: B1
Assay: ELISA
Conditions: with M0418 scFv-Fcε fusion protein [human], read off a plot

## chain 2 GISFPEGFPFKYVKAG [chain 2 D15A]
10X dilution
  screen value: -0%
100X dilution
  screen value: -0%

## chain 2 GISFPAGFPFKYVKDG [chain 2 E6A]
10X dilution
  screen value: -0%
100X dilution
  screen value: 14%

## chain 2 GISAPEGFPFKYVKDG [chain 2 F4A]
10X dilution
  screen value: -0%
100X dilution
  screen value: 37%

## chain 2 GISFPEGAPFKYVKDG [chain 2 F8A]
10X dilution
  screen value: 95%
100X dilution
  screen value: 98%

## chain 2 GISFPEGFPAKYVKDG [chain 2 F10A]
10X dilution
  screen value: -0%
100X dilution
  screen value: 38%

## chain 2 GISFPEAFPFKYVKDG [chain 2 G7A]
10X dilution
  screen value: 43%
100X dilution
  screen value: 83%

## chain 2 GASFPEGFPFKYVKDG [chain 2 I2A]
10X dilution
  screen value: 5%
100X dilution
  screen value: 76%

## chain 2 GISFPEGFPFAYVKDG [chain 2 K11A]
10X dilution
  screen value: 95%
100X dilution
  screen value: 98%

## chain 2 GISFPEGFPFKYVADG [chain 2 K14A]
10X dilution
  screen value: -0%
100X dilution
  screen value: -0%

## chain 2 GISFAEGFPFKYVKDG [chain 2 P5A]
10X dilution
  screen value: 96%
100X dilution
  screen value: 98%

## chain 2 GISFPEGFAFKYVKDG [chain 2 P9A]
10X dilution
  screen value: 95%
100X dilution
  screen value: 98%

## chain 2 GIAFPEGFPFKYVKDG [chain 2 S3A]
10X dilution
  screen value: -0%
100X dilution
  screen value: 9%

## chain 2 GISFPEGFPFKYAKDG [chain 2 V13A]
10X dilution
  screen value: -0%
100X dilution
  screen value: -0%

## chain 2 GISFPEGFPFKAVKDG [chain 2 Y12A]
10X dilution
  screen value: 3%
100X dilution
  screen value: 79%
